B1: recombinant homoisocitrate dehydrogenase (HIcDH) (Candida albicans SC5314) (protein)
chain: STSSTTLKSLKIGLIPGDGIGREVIPAGKAVLENLPAKHDLQFEFVNLDAGFELFKKTGTALPDETVDVLKKECDGALFGAVSSPTTKVAGYSSPIVALRKKLGLYANVRPVKSVEGIGRPVDMVIVRENTEDLYIKEERVYKKEDGTKVAEAIKRITETASTRIAKMAYEIALQREAVRKGTSGKQLHEKPSVTVTHKSNVLSQSDGLFRETCRAVYDANANEYGGIEYKEQIVDSMVYRMFREPEIFDVVVAPNLYGDILSDGAAALVGSLGVVPSANVGDNFAIGEPCHGSAPDIEGKGISNPVATIRSTALMLEFMGYPEAAATIYQAVDANLAEDKIKTPDLGGNSTTQEVIDDIIRRF
B2: recombinant homoaconitase (HA) (Candida albicans SC5314) (protein)
chain: MMLRFRSFSTTTHLLRGQNLTEKIVQKYAVGLQPSSKKVYSGDYVTIKPAHCMSHDNSWPVATKFMNLGASKVKDNRQIVCTLDHDVQNKSEQNLTKYTNIEKFAKSQGIDFYPAGRGIGHQIMIEEGYAFPLNLTVASDSHSNTYGGIGALGTPIVRTDAASIWATGQTWWQIPPVAKVELIGQLPKGVTGKDIIVALCGIFNNDEVLNHAIEFVGDDAISKLPIDYRLTIANMTTEWGALSGLFPVDETLVEFYQNRLKKLNKPDHPRINNQTIDQLINNKLTSDNDAVYAKHLQIDLSSLSPYISGPNSVKISNSLYDLSQQNIAINKAYLVSCTNSRLSDIQAAADIIKGHKVNPNVEFYVAAASSLVQKDAEQSGAWQTILDAGAKPLPAGCGPCIGLGTGLLKDGEVGISATNRNFKGRMGSKDALAYLASPEVVAASAVLGKIGGPEELNGEPVKQAPRIIKSIETESNSANEAESTSEEASGSIDILPGFPQSIEGELILCNADNINTDGIYPGKYTYQDDITKEQMAKVCMENYDSQFYSKTKPGDIIISGYNFGTGSSREQAATCILARGMKLIVAGSFGNIFSRNSINNALLTLEIPDLINKLRQQYEGNDELTIRTGWFLKWDVTKAQVTVVDGDDNLILTQKVGELGTNLQDIIVKGGLEGWVKSELKTNQ
notes: made in house

Key:
[1] = substrate: O=C(O)CC[C@H](C(=O)O)[C@@H](O)C(=O)O; experiment: Homoisocitrate dehydrogenase activity, NADH absorption at 340 nm; assay type: biochemical; details: other: recombinant C. albicans HIcDH; pH 7.8; 20.0 °C
Experimental: (§1) Recombinant C. albicans homoaconitase (HA) and homoisocitrate dehydrogenase (HIcDH) containing oligoHis N-terminal tags were constructed and purified to near homogeneity as described earlier.
Reaction catalyzed by homoisocitrate dehydrogenase (HIcDH) was monitored by measuring the NADH absorption at 340 nm. The standard assay mixture contained 10 mM KCl, 5.0 mM MgCl2, 5 mM NAD^+ and 0.1 mM (2R,3S)-homoisocitrate in 50 mM Hepes-NaOH (pH 7.8) buffer. The reaction mixture with all required components except for the enzyme was preincubated for 3 min and the reaction was started by an addition of the recombinant His6-HIcDH (50 μg). The formation of NADH was measured for 30 s at 20 °C to determine initial reaction velocity. The initial rates were determined using a linear portion of the reaction progress curve.
(§2) The effects of novel compounds on the HA and HIcDH activity was determined by measuring the enzyme activity in standard assay mixtures containing various concentration of an inhibitor (0–10 mM). Inhibitory potential was expressed as IC50 values, i.e., concentrations causing 50% inhibition of enzyme activity in relation to control. All determinations were performed in triplicate.

[2] = substrate: O=C(O)CC[C@@](O)(CC(=O)O)C(=O)O; experiment: Homoaconitase activity, coupled reaction with HIcDH, NADH at 340 nm; assay type: biochemical, Candida albicans; details: other: recombinant C. albicans HA; pH 8.5; 20.0 °C
Experimental: as §1
Activity of homoaconitase (HA) was measured by a coupled reaction with HIcDH by monitoring the reduction of NAD^+ to NADH at 340 nm. Reaction mixtures containing 50 mM Tris-HCl (pH 8.5), 50 mM KCl, 5 mM MgCl2, 20 mM dithiothreitol, 1 mM NAD^+ and 30 μg/mL of His6-HIcDH in a total volume of 0.9 mL were degassed under argon for 10 min, after which 0.05 mL of His6-HAC solution was added to a final concentration of 10 μg/mL. The reaction was initiated with addition of 0.05 mL of 50 mM (R)-homocitrate. The formation of NADH was measured for 30 s at 20 °C to determine initial reaction velocity. The initial rates were determined using a linear portion of the reaction progress curve.
as §2

Protein | Km [1] [µM] | Km [2] [µM]
B1 | 74 | 
B2 |  | 1500

From article PMC6268379, “Antifungal Activity of Homoaconitate and Homoisocitrate Analogs” (Molecules, 2012)
